Laboratory results: PMC2112662

Target: type IV (basement membrane) collagen of Np cells (Peak II) (mouse (endogenous in Np fibrosarcoma cells))
Assay: radioligand binding

laminin specifically bound (cpm) at 50 ng 125I-laminin added: 0 cpm
laminin specifically bound (cpm) at 500 ng 125I-laminin added: 9250 cpm
Substance: laminin (from the EHS (Engelbreth-Holm-Swarm) sarcoma) (from UniProt P19137 25-3083; P02469 22-1786; P02468 34-1607) (complex)
